Source: the supplement of paper PMC12338614
± gives the uncertainty stated by the source.

B1: library; numbered along this chain (parent)
chain: MEVVDPQQLGMFTEGELMSVGMDTFIHRIDSTEVIYQPRRKRAKLIGKYLMGDLLGEGSYGKVKEVLDSETLCRRAVKILKKKKLRRIPNGEANVKKEIQLLRRLRHKNVIQLVDVLYNEEKQKMYMVMEYCVCGMQEMLDSVPEKRFPVCQAHGYFCQLIDGLEYLHSQGIVHKDIKPGNLLLTTGGTLKISDLGVAEALHPFAADDTCRTSQGSPAFQPPEIANGLDTFSGFKVDIWSAGVTLYNITTGLYPFEGDNIYKLFENIGKGSYAIPGDCGPPLSDLLKGMLEYEPAKRFSIRQIRQHSWFRKKHPPAEAPVPIPPSPDTKDRWRSMTVVPYLEDLHGADEDEDLFDIEDDIIYTQDFTVPGQVPEEEASHNGQRRGLPKAVCMNGTEAAQLSTKSRAEGRAPNPARKACSASSKIRRLSACKQQ

Variants of: B1
Assay: STK11 functional score (HeLa growth suppression), rescaled enrichment; synonymous median = 1, nonsense median = 0 (normalised score)
Details: with HeLa; variant type: missense
Description: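 Deep mutational scan (TileSeq/POPCode codon randomisation) of full-length codon-optimised STK11 cDNA integrated at a Bxb1 landing pad (AAVS1) in HeLa cells. Restoring functional STK11 suppresses HeLa proliferation. Variant frequencies were measured by NGS before and after about two weeks of growth. The error-corrected enrichment log-ratio was rescaled so that synonymous median = 1 and nonsense median = 0, scores above 1 were compressed, and codon-level and three biological replicate scores were combined; error is the bootstrapped standard error. Scale: synonymous median = 1, nonsense median = 0; below 0.5 = damaging.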

Which STK11 functional score does the source give for F255E here?
Its STK11 functional score is 0.827 ± 0.37.

For F255V, which STK11 functional score is on record?
Its STK11 functional score is 1.09 ± 0.13.

How did the STK11 functional score turn out when Q37M was run?
Its STK11 functional score is 1.17 ± 0.1.

N226W was tested. Which STK11 functional score did it give?
Its STK11 functional score is 1.65 ± 0.24.

How did the STK11 functional score turn out when N226T was run?
The STK11 functional score was 1.26 ± 0.12.

Which STK11 functional score does the source give for N226A here?
Its STK11 functional score is 1.61 ± 0.19.

Which STK11 functional score does the source give for L228F here?
Its STK11 functional score is 1.34 ± 0.43.

For P315H, which STK11 functional score is on record?
The STK11 functional score was 1.34 ± 0.24.

With P315V as the variant, how does the STK11 functional score read?
Its STK11 functional score is 1.17 ± 0.18.

With P315D as the variant, how does the STK11 functional score read?
The STK11 functional score was 1.51 ± 0.16.

Which STK11 functional score does the source give for P315I here?
The STK11 functional score was 1.21 ± 0.28.

With E317P as the variant, how does the STK11 functional score read?
Its STK11 functional score is 1.6 ± 0.21.

Which STK11 functional score does the source give for K41S here?
Its STK11 functional score is 1.46 ± 0.16.

For G15N, which STK11 functional score is on record?
The STK11 functional score was 1.69 ± 0.15.

Y362A was tested. Which STK11 functional score did it give?
Its STK11 functional score is 1.42 ± 0.26.

With Y362W as the variant, how does the STK11 functional score read?
The STK11 functional score was 1.31 ± 0.22.

For V368W, which STK11 functional score is on record?
Its STK11 functional score is 0.786 ± 0.6.

For V368Q, which STK11 functional score is on record?
The STK11 functional score was 0.833 ± 0.5.

For D176C, which STK11 functional score is on record?
Its STK11 functional score is -0.0937 ± 0.092.

Which STK11 functional score does the source give for K78F here?
The STK11 functional score was 0.0316 ± 0.078.

For K78D, which STK11 functional score is on record?
Its STK11 functional score is -0.161 ± 0.078.

How did the STK11 functional score turn out when K108H was run?
The STK11 functional score was 1.26 ± 0.3.

Which STK11 functional score does the source give for C151E here?
The STK11 functional score was 0.756 ± 0.29.

For E145Y, which STK11 functional score is on record?
Its STK11 functional score is 1.12 ± 0.08.

With P222Q as the variant, how does the STK11 functional score read?
The STK11 functional score was 0.712 ± 0.2.

L85C was tested. Which STK11 functional score did it give?
Its STK11 functional score is 1.1 ± 0.34.

How did the STK11 functional score turn out when G408F was run?
Its STK11 functional score is 1.24 ± 0.52.

With S334G as the variant, how does the STK11 functional score read?
Its STK11 functional score is 1.35 ± 0.17.

Which STK11 functional score does the source give for S334M here?
Its STK11 functional score is 1.05 ± 0.17.

For P387A, which STK11 functional score is on record?
The STK11 functional score was 1.32 ± 0.35.

For M335I, which STK11 functional score is on record?
The STK11 functional score was 1.18 ± 0.55.

With P413C as the variant, how does the STK11 functional score read?
Its STK11 functional score is 1.17 ± 0.41.

For P413N, which STK11 functional score is on record?
The STK11 functional score was 1.6 ± 0.11.

How did the STK11 functional score turn out when K64P was run?
Its STK11 functional score is 0.931 ± 0.21.

Which STK11 functional score does the source give for K64G here?
Its STK11 functional score is 0.436 ± 0.29.

For R87S, which STK11 functional score is on record?
Its STK11 functional score is 0.989 ± 0.55.

How did the STK11 functional score turn out when R87V was run?
The STK11 functional score was 1.08 ± 0.43.

For M392I, which STK11 functional score is on record?
The STK11 functional score was 1.42 ± 0.52.

Which STK11 functional score does the source give for L400D here?
Its STK11 functional score is 1.19 ± 0.3.

Which STK11 functional score does the source give for F264L here?
Its STK11 functional score is 1.1 ± 0.13.

How did the STK11 functional score turn out when D358S was run?
Its STK11 functional score is 1.47 ± 0.25.

With V66K as the variant, how does the STK11 functional score read?
The STK11 functional score was 1.4 ± 0.37.

How did the STK11 functional score turn out when V66F was run?
Its STK11 functional score is 0.608 ± 0.089.

How did the STK11 functional score turn out when Q137E was run?
Its STK11 functional score is 0.452 ± 0.43.

For Q137S, which STK11 functional score is on record?
Its STK11 functional score is 1.42 ± 0.23.

How did the STK11 functional score turn out when Q137N was run?
The STK11 functional score was 1.62 ± 0.28.

L245A was tested. Which STK11 functional score did it give?
Its STK11 functional score is 0.101 ± 0.099.

With L245I as the variant, how does the STK11 functional score read?
The STK11 functional score was 0.581 ± 0.1.

M51A was tested. Which STK11 functional score did it give?
Its STK11 functional score is 1.45 ± 0.6.

With M51P as the variant, how does the STK11 functional score read?
Its STK11 functional score is 1.66 ± 0.35.

Which STK11 functional score does the source give for K81G here?
The STK11 functional score was 1.04 ± 0.1.

Which STK11 functional score does the source give for K81L here?
The STK11 functional score was 1.1 ± 0.13.

K81S was tested. Which STK11 functional score did it give?
Its STK11 functional score is 0.932 ± 0.1.

For R39Q, which STK11 functional score is on record?
Its STK11 functional score is 0.277 ± 0.097.

Which STK11 functional score does the source give for E120Y here?
The STK11 functional score was 0.964 ± 0.2.

How did the STK11 functional score turn out when S325Q was run?
Its STK11 functional score is 1.42 ± 0.32.

With P89W as the variant, how does the STK11 functional score read?
Its STK11 functional score is 1.08 ± 0.16.

With P89D as the variant, how does the STK11 functional score read?
Its STK11 functional score is 0.0497 ± 0.083.

For P89H, which STK11 functional score is on record?
Its STK11 functional score is 1.3 ± 0.17.

How did the STK11 functional score turn out when E92N was run?
Its STK11 functional score is 1.39 ± 0.11.

With Q399V as the variant, how does the STK11 functional score read?
Its STK11 functional score is 0.994 ± 0.34.

How did the STK11 functional score turn out when E265A was run?
The STK11 functional score was 1.3 ± 0.53.

How did the STK11 functional score turn out when E265Q was run?
The STK11 functional score was 0.752 ± 0.43.

Which STK11 functional score does the source give for E265M here?
Its STK11 functional score is 1.25 ± 0.16.

Which STK11 functional score does the source give for E265I here?
Its STK11 functional score is 1.42 ± 0.31.

N266S was tested. Which STK11 functional score did it give?
Its STK11 functional score is 0.965 ± 0.15.

How did the STK11 functional score turn out when N266R was run?
Its STK11 functional score is 1.3 ± 0.14.

For L72V, which STK11 functional score is on record?
The STK11 functional score was 1.16 ± 0.21.

L72M was tested. Which STK11 functional score did it give?
The STK11 functional score was 0.649 ± 0.15.

How did the STK11 functional score turn out when H313Y was run?
The STK11 functional score was 0.272 ± 0.7.

For V77W, which STK11 functional score is on record?
The STK11 functional score was 0.824 ± 0.077.

For V77Q, which STK11 functional score is on record?
The STK11 functional score was 0.597 ± 0.56.

R415M was tested. Which STK11 functional score did it give?
Its STK11 functional score is 1.4 ± 0.16.

How did the STK11 functional score turn out when S232D was run?
Its STK11 functional score is 1.14 ± 0.3.

With S232Q as the variant, how does the STK11 functional score read?
The STK11 functional score was 1.03 ± 0.58.

Which STK11 functional score does the source give for T244V here?
Its STK11 functional score is 1.15 ± 0.45.

With T244D as the variant, how does the STK11 functional score read?
Its STK11 functional score is -0.0204 ± 0.1.

For T250H, which STK11 functional score is on record?
Its STK11 functional score is 1.65 ± 0.24.

T230L was tested. Which STK11 functional score did it give?
The STK11 functional score was 0.829 ± 0.16.

Which STK11 functional score does the source give for S19P here?
The STK11 functional score was 1.32 ± 0.23.

Which STK11 functional score does the source give for W239C here?
Its STK11 functional score is 0.0722 ± 0.1.

W239V was tested. Which STK11 functional score did it give?
The STK11 functional score was -0.13 ± 0.092.

L263E was tested. Which STK11 functional score did it give?
The STK11 functional score was 1.04 ± 0.17.

For N181I, which STK11 functional score is on record?
The STK11 functional score was -0.248 ± 0.1.
